Biological target: PRKAR2A, regulatory subunit of protein kinase A (NanoBiT positive control) (UniProt P13861)
Experiment: split reporter

Chain of PRKAR2A, regulatory subunit of protein kinase A (NanoBiT positive control) (P13861 whole entry): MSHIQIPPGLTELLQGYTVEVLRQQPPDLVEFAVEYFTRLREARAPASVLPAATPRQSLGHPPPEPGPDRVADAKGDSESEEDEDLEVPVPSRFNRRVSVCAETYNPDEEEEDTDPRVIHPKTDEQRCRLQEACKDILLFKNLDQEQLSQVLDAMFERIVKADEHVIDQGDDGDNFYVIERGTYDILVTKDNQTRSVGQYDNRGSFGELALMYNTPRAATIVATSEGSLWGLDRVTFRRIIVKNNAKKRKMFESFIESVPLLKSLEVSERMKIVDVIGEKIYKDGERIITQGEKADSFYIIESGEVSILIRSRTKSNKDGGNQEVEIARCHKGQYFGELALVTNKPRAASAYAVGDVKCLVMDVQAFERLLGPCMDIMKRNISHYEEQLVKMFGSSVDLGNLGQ

In the case of “PRKACA, catalytic subunit of protein kinase A (NanoBiT positive control) (from UniProt P17612 1-351) (natural protein)”, the nanoluciferase activity (RLU) is reported as 800000 RLU.
